Measured values: paper PMC7508878
“And” between values parts separate entries of the source, which are not always exact repeats. Equal values may be shown once.

Tests used:
[1] = biological target: Tri1 protein of the varicella-zoster virus heterotriplex (varicella-zoster virus (strain vOka)); assay: cryo-EM structure; VZV A-capsids purified from infected MRC-5 cells, in 1x PBS; single-particle reconstruction with block-based (localized) reconstruction of an asymmetric unit, 3.7 Å
[2] = biological target: major capsid protein (MCP) of varicella-zoster virus (varicella-zoster virus (strain vOka)) (UniProt P09245); assay: as above

Tri2 protein of the varicella-zoster virus heterotriplex (natural protein)
stoichiometry N (Tri2 per Tri1) [1]: 2

major capsid protein (MCP) of varicella-zoster virus (from UniProt P09245 1-1396) (natural protein)
stoichiometry N [2]: 5 and 6
